Assay results taken from paper PMC3741163, “CCL18 Exhibits a Regulatory Role through Inhibition of Receptor and Glycosaminoglycan Binding” (PLoS ONE, 2013).
Values joined by “and” are separate entries in the source; they are usually repeats but may differ in a detail not shown here. Equal entries are not always repeated.

B1: CCL18 (ligand, human, UniProt P55774 21-89, looked up)
chain: AQVGTNKELCCLVYTSWQIPQKFIVDYSETSPQCPKPGVILLTKRGRQICADPNKKWVQKYISDLKLNA
notes: CCL18 chemokine, unlabelled; also called PARC; MIP-4; source: purchased from PeptroTech or produced as previously described [30]
B2: CCL11 (ligand)
chain: not shown
notes: CCL11 chemokine, unlabelled; source: purchased from PeptroTech or produced as previously described [30]

Tests used:
[1] = molecular target: T1, CCR3 (UniProt P51677 1-355); test: cell-based or functional assay
T1 sequence (looked up): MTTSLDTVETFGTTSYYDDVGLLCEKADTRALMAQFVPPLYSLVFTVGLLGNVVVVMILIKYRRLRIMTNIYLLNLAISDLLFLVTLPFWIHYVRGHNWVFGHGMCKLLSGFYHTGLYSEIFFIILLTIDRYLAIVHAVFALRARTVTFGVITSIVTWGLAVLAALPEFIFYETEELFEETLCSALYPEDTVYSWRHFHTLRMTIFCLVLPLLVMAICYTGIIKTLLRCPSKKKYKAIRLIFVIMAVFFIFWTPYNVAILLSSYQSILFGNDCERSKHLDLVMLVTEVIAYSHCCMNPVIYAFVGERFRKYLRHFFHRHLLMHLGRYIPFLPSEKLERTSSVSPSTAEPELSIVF

[2] = molecular target: T1, CCR3; test: cell-based or functional assay; remark: listed apart in the source
[3] = molecular target: T1, CCR3; test: radioligand binding; equilibrium competition on L1.2/CCR3 transfectants, tracer 0.1 nM 125I-CCL18, 0.1 x10^6 cells/well, competitor 10^-6 to 10^-12 M, room temperature 4 h, filtration; conditions: one partner purified
[4] = molecular target: T1, CCR3; test: radioligand binding; equilibrium competition on L1.2/CCR3 transfectants, tracer 0.1 nM 125I-CCL11, 0.1 x10^6 cells/well, competitor 10^-6 to 10^-12 M, room temperature 4 h, filtration; conditions: one partner purified

Binder | IC50 of CCL18 for inhibition of chemotaxis of L1.2/CCR3 transfectants to 1 nM CCL11 (mean of 7) [1] [nM] | IC50 of CCL18 for inhibition of chemotaxis of L1.2/CCR3 transfectants to 10 nM CCL5 [1] [nM] | IC50 of CCL18 for inhibition of chemotaxis of L1.2/CCR3 transfectants to 10 nM CCL26 [1] [nM] | IC50 of CCL18 for inhibition of chemotaxis of L1.2/CCR3 transfectants to 100 nM CCL15 [1] [nM] | EC50 of CCL11-induced Ca2+ release in L1.2/CCR3 transfectants in the presence of 0 nM to 5 µM CCL18 (EC50 69.93 nM without CCL18, rising with the concentration) [2] [µM] | IC50 of CCL18 for inhibition of chemotaxis of L1.2/CCR3 transfectants to 1 nM CCL11 (experiment shown in Figure 1A) [2] [nM] | IC50 [3] | IC50 [4]
B1 | 318 | 40.8 | 123 | 2.9 | 10.5 | 397 | 6.8 nM and 8.86 nM | –
B2 | – | – | – | – | – | – | – | 7.4 nM and 13.2 nM
